T1: La/SSB N-terminal domain (La-NTD) (human, UniProt P05455)
T1 chain: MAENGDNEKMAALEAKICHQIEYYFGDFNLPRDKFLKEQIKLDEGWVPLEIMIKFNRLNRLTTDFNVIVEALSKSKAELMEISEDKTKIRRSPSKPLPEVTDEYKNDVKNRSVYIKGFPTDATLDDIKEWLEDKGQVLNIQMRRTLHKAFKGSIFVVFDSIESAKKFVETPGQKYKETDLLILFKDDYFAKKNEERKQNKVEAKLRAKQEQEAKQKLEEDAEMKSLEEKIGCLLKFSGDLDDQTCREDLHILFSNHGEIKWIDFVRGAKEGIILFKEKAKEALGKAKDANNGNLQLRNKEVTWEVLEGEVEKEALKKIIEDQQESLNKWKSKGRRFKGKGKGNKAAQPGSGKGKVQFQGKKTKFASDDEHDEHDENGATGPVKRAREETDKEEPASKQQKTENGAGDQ

B1: chAPOMAB_VH0/VK0_K322A (antibody, V domains shown)
VH: EVQLQQPGAELVKPGASVKLSCKASGYAFTHYYIYWIKQRPGQGLEWIGGVNPSNGGTHFNEKFKSKATLTVDKSSSTAYMQLSSLTSEDSAVYYCTRSEYDYGLGFAYWGQGTLLTVSS
VL: EIVMSQSPSSLAVSAGEKVTMSCKSSQSLLNSRTPKNYLAWYQQKPGQSPKLLIYWASTRKSGVPDRFTGSGSGTDFTLTISSVQAEDLAVYYCKQSYNLLTFGAGTKLEL
B2: VH3/VK6_K322A (antibody, V domains shown)
VH: EVQLVQSGAEVKKPGASVKVSCKASGYAFTHYYIYWIRQAPGQGLEWMGGVNPSSGGTHYAEKFQGRVTLTVDTSSSTAYMELSSLRSEDTAVYYCTRSEYDYGLGFAYWGQGTLVTVSS
VL: DIVMTQSPLSLPVTPGEPASISCRSSQSLLSSRTPKNYLAWYQQKPGQSPQLLIYWASTRKSGVPDRFSGSGSGTDFTLKISRVEAEDVGVYYCKQSYNLLTFGQGTKLEIK
B3: VH6/VK8_K322A (antibody, V domains shown)
VH: EVQLVQSGAEVKKPGASVKVSCKASGYAFTHYYIYWIKQAPGQGLEWIGGVNPSNGGTHFNEKFKSRVTITVDKSASTAYMELSSLRSEDTAVYYCTRSEYDYGLGFAYWGQGTLVTVSS
VL: EIVMTQSPDSLAVSLGERATINCKSSQSLLNSRTPKNYLAWYQQKPGQPPKLLIYWASTRESGVPDRFTGSGSGTDFTLTISSLQAEDVAVYYCKQSYNLLTFGQGTKLEIK
B4: VH3/VK6_K322A_RadMab (antibody, V domains shown)
VH: EVQLVQSGAEVKKPGASVKVSCKASGYAFTHYYIYWIRQAPGQGLEWMGGVNPSSGGTHYAEKFQGRVTLTVDTSSSTAYMELSSLRSEDTAVYYCTRSEYDYGLGFAYWGQGTLVTVSS
VL: DIVMTQSPLSLPVTPGEPASISCRSSQSLLSSRTPKNYLAWYQQKPGQSPQLLIYWASTRKSGVPDRFSGSGSGTDFTLKISRVEAEDVGVYYCKQSYNLLTFGQGTKLEIKR
B5: VH6/VK8_K322A_RadMab (antibody, V domains shown)
VH: EVQLVQSGAEVKKPGASVKVSCKASGYAFTHYYIYWIKQAPGQGLEWIGGVNPSNGGTHFNEKFKSRVTITVDKSASTAYMELSSLRSEDTAVYYCTRSEYDYGLGFAYWGQGTLVTVSS
VL: EIVMTQSPDSLAVSLGERATINCKSSQSLLNSRTPKNYLAWYQQKPGQPPKLLIYWASTRESGVPDRFTGSGSGTDFTLTISSLQAEDVAVYYCKQSYNLLTFGQGTKLEIKR

Target: T1, La/SSB N-terminal domain (La-NTD)
Assay: SPR
For B1, the Kd was 18.2 nM.
In the case of B2, the Kd is reported as 13.6 nM.
Work on B3 yielded a Kd of 14.5 nM.
B4 gave a Kd of 8.27 nM.
B5 gave a Kd of 8.72 nM.

— patent US20260284244 (published 2026)
